Data from patent publication EP4786494A1 (Nanjing Leads Biolabs Co., Ltd., dated 2026).
Positions count from the first letter of the chain named.

Tests used:
[1] = molecular target: T1, human FGFR2-his protein (huFGFR2-his) (human); experiment: BLI (ForteBio Octet RED96e), antibody on AHC sensor, FGFR2-his in solution, 1:1 model
T1 construct: Extracellular region of human FGFR2 (NP_001138385.1) with a 6xHis tag; also called human FGFR2 extracellular protein
T1 chain: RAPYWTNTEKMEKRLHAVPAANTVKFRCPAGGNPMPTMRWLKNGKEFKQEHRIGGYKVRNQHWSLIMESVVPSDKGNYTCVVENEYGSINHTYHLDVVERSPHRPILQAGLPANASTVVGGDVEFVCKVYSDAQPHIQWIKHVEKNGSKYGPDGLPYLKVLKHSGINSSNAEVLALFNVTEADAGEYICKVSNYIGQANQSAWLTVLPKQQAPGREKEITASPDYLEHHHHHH

[2] = molecular target: T2, cynomolgus FGFR2-his protein (cynoFGFR2-his) (cynomolgus); experiment: BLI (ForteBio Octet RED96e), antibody on AHC sensor, cynomolgus FGFR2-his in solution, 1:1 model
T2 construct: Extracellular region of cynomolgus FGFR2b (XP_028682763.1) with a 6xHis tag; also called cynomolgus FGFR2 extracellular protein
T2 chain: T1 chain with M35T

Kd [1]: 2.62 nM
koff [1]: 0.000431 s⁻¹
kon [1]: 164000 M⁻¹ s⁻¹
Kd [2]: 1.62 nM
koff [2]: 0.000866 s⁻¹
kon [2]: 536000 M⁻¹ s⁻¹
B1: humanized monoclonal antibody huG11B8-5 (antibody, human IgG1, kappa, V domains shown)
VH: EVQLVQSGAEVKKPGATVKISCKASGYTFTDYNMDWVQQAPGKGLEWMGDINPKNGETFYAEKFQGRVTLTVDRSTNTAYMELSSLRSEDTAVYFCAKRDLNWYFDYWGQGTTVTVSS
VL: DIQMTQSPSSLSASVGDRVTITCQASDHINNWLAWYQQKPGKAPKLLISGATSLETGVPSRFSGSGSGKDYTFTISSLQPEDIATYYCQQYWSTPWTFGGGTKVEIKR
notes: huG11B8H-3 + huG11B8L-1; human IgG1 / kappa
